Source: paper doi:10.1101/157495 (bioRxiv, 2017)

Biological target: the molecule itself
Experiment: SEC

B1: cyclohexadienyl dehydratase from Pseudomonas aeruginosa (PaCDT) (enzyme, UniProt Q01269 26-268, looked up)
chain: QESRLDRILESGVLRVATTGDYKPFSYRTEEGGYAGFDVDMAQRLAESLGAKLVVVPTSWPNLMRDFADDRFDIAMSGISINLERQRQAYFSIPYLRDGKTPITLCSEEARFQTLEQIDQPGVTAIVNPGGTNEKFARANLKKARILVHPDNVTIFQQIVDGKADLMMTDAIEARLQSRLHPELCAVHPQQPFDFAEKAYLLPRDEAFKRYVDQWLHIAEQSGLLRQRMEHWLEYRWPTAHGK
- stoichiometry N: 3
